According to the DeepSol protein solubility set:

assay: soluble on expression in E. coli; label from the status in PepcDB or PDB records

**Q.** Which “soluble on expression in E. coli” value does the source give for “MGSDKIHHHHHHMIRSLWTAKTGLESQQVKLDVISNNLSNVSTNGFKRSRPVFEDLLYQNVRQPGAQASAVDTLPSGLQVGTGVRPVATERLHTQGGLQNTDNSKDLAINGQGFFAVQMPDGTSAYTRDGSFQIDENGQMVTAGGYPLDPPIVIPENALSVSISQDGVVSVTQPGDTAAQEVGQLTLSKFINPAGLQSMGENLYQETDASGPRNDLIPGMEGAGRLYQGYVETSNVNVVEEMVSMIETQRAYEINSKAVETSDQMLSRLTQL” here?
**A.** not soluble

**Q.** With “MGSDKIHHHHHHMISATNWVPRGFSSEFPEKYVLDDEEVERINQLAQLNLDDAKATLEEAEGESGVEDDAATGSSNKLKDQLDIDDDLKEYNLEEYDDEEIADNEGGKDVSMFPGLSNDSDVKFHEGEKGEDPYISLPNQEDSQEEKQELQVYPSDNLVLAARTEDDVSYLDIYVYDDGAGFHSSDIPVEEGDEADPDVARGLVRDPALYVHHDLMLPAFPLCVEWLDYKVGSNSEEAANYAAIGTFDPQIEIWNLDCVDKAFPDMILGEPLDNSMVSLKSKKKKKKSKTGHITTHHTDAVLSMAHNKYFRSVLASTSADHTVKLWDLNSGNAARSLASIHSNKNVSSSEWHMLNGSILLTGGYDSRVALTDVRISDESQMSKYWSAMAGEEIETVTFASENIILCGTDSGNVYSFDIRNNENRKPVWTLKAHDAGISTLCSNKFIPGMMSTGAMGEKTVKLWKFPLDDATNTKGPSMVLSRDFDVGNVLTSSFAPDIEVAGTMVIGGVNKVLKLWDVFTNRSVRKSFKSELENVQARAKEEAQKIGKSSRIARKYTSNDNPDTVITIDDQGEDEEEREGGDEHDDMA” as the sequence, how does the “soluble on expression in E. coli” value read?
**A.** not soluble

**Q.** For “MGSDKIHHHHHHMISMKEEIKKVIEETGLPIITDEKSGAAQWVDLRELRLSYIISVENIKPFYEGLKEGKLLGTKCKKCGRLFFPPQKDCPSCFDSDIEWVELKNEGTLETMTVVFVRPPSFSAYDPYPVAIAKLDDGPRILAWYKGDPQQAKPGMRVKIQVGKRKEGYLMYEIAPA”, which “soluble on expression in E. coli” value is on record?
**A.** not soluble

**Q.** For “MGSDKIHHHHHHMITTTIFPGRYVQGAGAINILEEELSRFGERAFVVIDDFVDKNVLGENFFSSFTKVRVNKQIFGGECSDEEIERLSGLVEEETDVVVGIGGGKTLDTAKAVAYKLKKPVVIVPTIASTDAPCSALSVIYTPNGEFKRYLFLPRNPDVVLVDTEIVAKAPARFLVAGMGDALATWFEAESCKQKYAPNMTGRLGSMTAYALARLCYETLLEYGVLAKRSVEEKSVTPALEKIVEANTLLSGLGFESGGLAAAHAIHNGLTVLENTHKYLHGEKVAIGVLASLFLTDKPRKMIEEVYSFCEEVGLPTTLAEIGLDGVSDEDLMKVAEKACDKNETIHNEPQPVTSKDVFFALKAADRYGRMRKNLT”, which “soluble on expression in E. coli” value is on record?
**A.** soluble

**Q.** Which “soluble on expression in E. coli” value does the source give for “MGSDKIHHHHHHMIWKLSERKDWNSLEQQFGWVRDMNQVPQHTVHHAEGSVAVHTRMVLEALLRQPAYPMLPEQEREILWAAALLHDVEKRSTSVDEGNGQVTSKNHAKRGETTVRTLLYRDIPAPFNIREHIASLVRHHGLPIWLMEREDPLKRACEASLRLDTSLLKQLTVADICGRISTDKEVLLEATEFFEMFCREQQCWGKAREFANGTARFHYFHTPRSYIDYVPHDDFKCGVTLLVGLPGMGKDYYIESRCADMPVVSLDAIRRKHKFSPTDKAANGWVAQTAKEQARIYLRKGQDFIWNATNVSRQRRTQLIDLFITYGARVKIVYIEKPYSVWRRQNSTREYEVPETVLDKMLGRLEVPQLTEAHEVVYVVEE” here?
**A.** not soluble

**Q.** Which “soluble on expression in E. coli” value does the source give for “MGSDKIHHHHHHMIYNYGFLDENTKKEIRRKILKAISIPGYQVPFGSRELPIAKGWGTGGLQLTLSLIGKNDVVKVIDQGSDDSTNACNIRSFIASVSNVETTKDTLEATLIQTRHRIPEEKLKSNQILIFQVPIPETLRIVEPSEVETRRMHSEEDYSRMWVYLYEDIVRFNDISIAVEYPCKVNDRYLMNPSPIPRFDIKKLNMSDNLFLFGAGREKRIYAIPPYTKVEPLEFEDYKFEEEKFEGKYCSLCNSTNTFLDEVYDSDTNEKYYSCSDTSYCEKVRLKNNSIDVTIGGTWNE” here?
**A.** not soluble

**Q.** With “MGSDKIHHHHHHMKAVILAAGRGSRLQALTDERPKALVPFNGVPLLQRAIETLRRCDVSEVGIVAGYRSEMLAPFADTLFYNHRWHSSGIFSSLNCASDWLSAEPCLVSYGDIFYDSTLVSELINHPADIVLGYDPAAVRLWQQRFNDPLPDLENFRLVDGWVSAIGQTATSLEVIQGQYMGLFKVTPAGWQALKKQLQGLTPQARDQTDMTSLLGTLVSEGFPVAGVATHAPWGEIDCPSDVALYERIYPDR” as the sequence, how does the “soluble on expression in E. coli” value read?
**A.** not soluble

**Q.** For “MGSDKIHHHHHHMKCNDKLAPFEVFDHVVNKKLSFRHVTMDDVDMLHSWMHEEHVIPYWKLNIPLVDYKKHLQTFLNDDHQTLMVGAINGVPMSYWESYWVKEDIIANYYPFEEHDQGIHLLIGPQEYLGQGLIYPLLLAIMQQKFQEPDTNTIVAEPDRRNKKMIHVFKKCGFQPVKEVELPDKIGLLMKCEQNVFEKRWSDWKMNKF”, which “soluble on expression in E. coli” value is on record?
**A.** not soluble

**Q.** Which “soluble on expression in E. coli” value does the source give for “MGSDKIHHHHHHMKDGKLYVAFSGGKDSSLVAILAKMALGEERVELVTVDWSPYTYERSREIVRNFAEKHGLKHTFIPSNRMQEKVWKHGPSCNACTRDVKTVLVKRYAQGHLVASGANASDSWGKTGLKVFDGVYSPLCRVGKEEINEMLKFLGLEVKKIGESAGREGCKLKHLLKMLINPDYHGKAVSTANEILLRVLEEHGFKPELANVKIIGPLSRNIALVNVKPLPPEKVMNEIVEKLSAEETIDGVIVVDGPMKLVVLASPAIYRNEESRKWIKEGRLQPEFAFPIEIEWRESKNNKLRTFQVVDARKE” here?
**A.** not soluble

**Q.** For “MGSDKIHHHHHHMKELIRKLTEAFGPSGREEEVRSIILEELEGHIDGHRIDGLGNLIVWKGSGEKKVILDAHIDEIGVVVTNVDDKGFLTIEPVGGVSPYMLLGKRIRFENGTIGVVGMEGETTEERQENVRKLSFDKLFIDIGANSREEAQKMCPIGSFGVYDSGFVEVSGKYVSKAMDDRIGCAVIVEVFKRIKPAVTLYGVFSVQEEVGLVGASVAGYGVPADEAIAIDVTDSADTPKAIKRHAMRLSGGPALKVKDRASISSKRILENLIEIAEKFDIKYQMEVLTFGGTNAMGYQRTREGIPSATVSIPTRYVHSPSEMIAPDDVEATVDLLIRYLGA”, which “soluble on expression in E. coli” value is on record?
**A.** soluble

**Q.** Which “soluble on expression in E. coli” value does the source give for “MGSDKIHHHHHHMKEQILEKLKTVKYPGFEKDIVSFNFVKDIKIQDDGVFIDIEIVSANPEVANEIRKNTIEALSSLALKNIELNIITPKIPEEKSNSRSGKNIAPQVKNFIMVSSGKGGVGKSTTTVNLAISMAKMGKRVGILDADIYGPNIPRMLGETKTQPEVVGQRLKPILTHGVYMMSMGVLIEEGQGLMWRGAMIMKAIEQLLADVIWPELDVLFLDMPPGTGDAQITSAQSIPIAAGVCVSTPQTVSLDDSKRALDMFNKLHIPIAGVIENMSGFLCPDNGKEYDIFGKGTAEDMAKAYKSEVLAQIPIEMIVREGGDEGKPVSFYHPESVSSKRYLMAAEKIWSFIEKINNEGGADNSAIQPVMNGKSACSH” here?
**A.** not soluble

**Q.** Which “soluble on expression in E. coli” value does the source give for “MGSDKIHHHHHHMKEVLEVLPKTMKQLVENCKQYDALEEIRVRIGRPLECIAHGEVFFYDYIVTADDAIYLLNKLSHFSIYTMEEELKRGYVTLRGGHRIGLAGKVITEKSTVKMIRDVSSFNIRIARQKIGIAEPLLPYLYESRWLNTMVIGPPQTGKTTLLRDVARCMSQGVSTSKIPSCKVGIVDERSEIAGCVKGIPQYDFGTRVDVLDACPKAEGMMMMIRSMSPDILIVDEIGRKEDSEAIMEAVHAGVQLFISAHGFSYDDVVKRPSLKAVLELGIFDRFVELSKARGPGTVMQVKDKYGKPVLPHRKAESVC” here?
**A.** not soluble

**Q.** With “MGSDKIHHHHHHMKFFDREKEIAEILHILNREPDDVYFIYGPINSGKTALINEIINNRLDKDKYVVFYFDLREIFISKYDDFIEVLFEEYEGNKKPVEIIKSLIKDVPSLCGIPAPKNTLEEILKKKTTKNVFRYITKVLMDIKKEGKQPILIIDELQKIGDMKINGFLIYELFNYFVSLTKHKHLCHVFCLSSDSLFIERVYNEAMLDGRAKYLLVDDFDKETALKFMDFLAKENNISLTNEDKELIYNYVGGKPKDIKYVVEESNFKDLKEVLDYLLNDEISKLDMFLEILDYSKPRVEVGNEVIEINKEDIIKALRLFKDKYEIPKKDIPTPVYVYLVKENILFLNPQKRILKPQSYLVWNAIKRLL” as the sequence, how does the “soluble on expression in E. coli” value read?
**A.** not soluble

**Q.** For “MGSDKIHHHHHHMKFLPLIAMCLFLTGCVGDRSDLELFVTTTKAQHVAHIPPLKEPPRFEHFAYQAELMRSPFVPPSRELTEEVVDTSKDCLQPDLKRRKGRLETYPLDNLKMRGTLSEADTTWALVETNDGSVYRMGTGEYLGLFNGRISKVTSQNVEVVELIPDGSGCWSERTSNLELSGE”, which “soluble on expression in E. coli” value is on record?
**A.** not soluble

**Q.** Which “soluble on expression in E. coli” value does the source give for “MGSDKIHHHHHHMKFSLGPSLFFWPKNEVVDFYQQAKESSADVIYLGETVCSKRRELRAKDWLGLAQDVAQDTNKQVVVSTMTLLESPAEIQVLKRLCDNGEFLVEANDLSAVQIMHELKMPFVAGPAINCYNLSTLKVLLKQGMTRWLMPVELSGDWLKILLEQATEAGIRQQFECEVFSWGYLPLAYSARCFTARSEDKAKDDCEYCCIKYPEGRRMNSREGERVFVLNGIQTLSGYQYNLINEMPALDAMGVDIARISADSTEAFTQLDNFREQLVNPTRKELDGVTECNGFWHKIAGMSVA” here?
**A.** not soluble

**Q.** With “MGSDKIHHHHHHMKGAAFVKKEGLKQKALEIGRVPTHLKLEIEDYGGDDKRAHFCWADPQDENTGIIVELGPDGELESLSRDIEPESGERLSEEKLEDIMRQFVETHHPGALSAFVREENDRAYGDKVRFSYVQMEAGLPLPMSGFMADVSLSGEIVYFRYYGEAGSIIKPKRVADVEEALAFIKKDVEFDLLFEVLHRSVYKNGDDQPHLVYEPEGRAITVPADLVQEEQAVDDDDDYREPESFPLPLFEGIREKADPDSMIGIENGFVKEREADLGDGRIGIVWRNPDDPVYQPADKSMDSWFKGRTHQVLKTIYNKETGKLEGVMSFMEKKGPLTVTLAECEKIALRFLFALFPNADQYFRIRYDEKDEEENAVAGFTFEAHCHGVPLRFGQIRICVSRQTGYITVYMGPDIDPNKLATIDPVPAISVEQAKSIFWQHFKVELGWEREYGDDEEHSYRLVYKPVYPHFIDAHTGEPVFSIW” as the sequence, how does the “soluble on expression in E. coli” value read?
**A.** not soluble

**Q.** For “MGSDKIHHHHHHMKGKHKVIVSTKRLKYEFELRRNLTIIQGDSATGKTTLVDMIRDFVNNPTGTPVEVICDKKCHVVEGSLWKEQLSGISDCIVFIDEGNEFITTVDFADKIQKTDNYYVIVTREALPALPYSVEEIYGIRTSGRYGTLKQSYHEFYRIYGTDTYEDKVSPEIIITEDSNSGYQFFEHVCIENGLKCESMNGKSNVFHYLNKHKGEKILVIADGAAFGSEIDRVLQVIHGRKNVALYLPESFEWMIMDADILKNNTVRSILSNPSEYVESKLYFSWERFFTAILIEQTKDTYLAYAKRKLNPAYLSGAIKESILRKMNIIDLNKKDE”, which “soluble on expression in E. coli” value is on record?
**A.** not soluble

**Q.** For “MGSDKIHHHHHHMKGYFGPYGGQYVPEILMPALEELEAAYEEIMKDESFWKEFNDLLRDYAGRPTPLYFARRLSEKYGARIYLKREDLLHTGAHKINNAIGQVLLAKKMGKTRIIAETGAGQHGVATATAAALFGMECVIYMGEEDTIRQKPNVERMKLLGAKVVPVKSGSRTLKDAINEALRDWITNLQTTYYVIGSVVGPHPYPIIVRNFQKVIGEETKKQILEKEGRLPDYIVACVGGGSNAAGIFYPFIDSGVKLIGVEAGGEGLETGKHAASLLKGKIGYLHGSKTFVLQDDWGQVQVTHSVSAGLDYSGVGPEHAYWRETGKVLYDAVTDEEALDAFIELSRLEGIIPALESSHALAYLKKINIKGKVVVVNLSGRGDKDLESVLNHPYVRERIR”, which “soluble on expression in E. coli” value is on record?
**A.** not soluble
